Results on 2 substances are retold here after publication PMC5292672.

The experiment concerns the target herpes virus entry mediator (HVEM) (human (endogenous in monocyte‐derived macrophages)) (UniProt Q92956).
Sequence of UniProt Q92956 (Q92956 39-283): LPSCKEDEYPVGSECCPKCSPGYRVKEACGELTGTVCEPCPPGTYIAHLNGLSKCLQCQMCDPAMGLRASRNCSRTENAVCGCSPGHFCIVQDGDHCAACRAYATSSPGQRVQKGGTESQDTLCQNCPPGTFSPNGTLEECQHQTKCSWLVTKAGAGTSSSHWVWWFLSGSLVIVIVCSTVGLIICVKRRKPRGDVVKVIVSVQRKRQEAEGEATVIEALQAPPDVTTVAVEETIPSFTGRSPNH

With “recombinant His‐tagged HSV‐1 gD (glycoprotein D of herpes simplex virus‐1) (from UniProt Q69091 26-394) (natural protein)”, the decrease of staurosporin-induced caspase-3 activity in primary macrophages exposed before to HSV-1 gD, against staurosporin alone amounted to 75%.
On to “recombinant human cyclophilin B (from UniProt P23284 34-216) (natural protein)”, for which the decrease of staurosporin-induced caspase-3 activity in primary macrophages exposed before to CyPB, against staurosporin alone is 75%.
